Data reported in patent US10006010B2, “Cytochrome P450 fusion protein” (The University of York, priority 2014, dated 2018).

How the values were obtained:
Assay type in all cases: biochemical
[1] = Enzyme assay on soluble/microsomal preparations of S. cerevisiae expressing STORR fusion or modules, substrate 1,2-dehydroreticuline; settings: soluble or microsomal preparations from S. cerevisiae; 100 μM substrate, 1 mM NADPH, 37° C. 3 hours
From the text: Genscript created synthetic DNA sequences were created for PsCPR [Genbank accession AAC05021, (Rosco A. et al. (1997) Arch. Biochem. Biophys. 348, 369-77), the full length STORR (CYP82Y2-Oxidoreductatse (“Oxired”)) protein, the N-terminal CYP82Y2 module and C-terminal oxidoreductase (Oxidoreductase) module, that were codon optimised for expression is Saccharomyces cerevisiae. The codon-optimized sequences are provided with the SEQ ID NO 30-33.
Expression vector pESC-TRP::soloxired was created by digesting the corresponding PCR product with NotI and PacI and inserting this behind the GAL10 promoter of pESC-TRP. pESC-TRP::CPR was created by digesting the corresponding PCR product with BamHI and XhoI and inserting this behind the GAL1 promoter of pESC-TRP. This was then used to created pESC-TRP::CPR::CYP82Y2 and pESC-TRP::CPR::CYP82Y2-Oxidoreductase. These plasmids were then transformed in S. cerevisiae G175 (Sorger D. et al. (2004) J. Biol. Chem. 279, 31190-6) using lithium acetate protocol (Geitz R. D. and Woods R. A. (2002) Methods in Enzymology 350, 87-96). Yeasts were cultivated in Synthetic Defined (SD) medium composed of 2% carbon source, 0.5% ammonium sulfate, 1.7 g L^−1 yeast nitrogen base (without amino acids and ammonium sulfate) and 1.92 g L^−1 or tryptophan drop-out supplement (Sigma-Aldrich, Gillingham, UK). Cultures grown using glucose as a carbon source were used to inoculate 200 ml cultures with raffinose as a carbon source to an OD 600 nm of 0.10 in 1 L conical flasks. […]
Enzymes assays were set up in 250 μL volumes containing final concentrations of 50 mM Bis-tris propane buffer, 1 mM NADPH and 100 μM of substrate. […] The extract was then dissolved in 100 μL of 50:50:0.1 hexane/ethanol/diethylamine and analysed by the chiral HPLC method to determine the relative amounts of (R)- and (S)-reticuline.
Poppy capsules were processed and analysed by UPLC-MS and R-scripts as previously described (“the standard method”; (Winzer T. et al. (2012) Science 336, 1704-8)). […]

[2] = Recombinant oxidoreductase enzyme assay (E. coli-expressed, purified), substrate (S)-reticuline
Experimental: (§1) The coding sequences of oxidoreductase A and B (Seq ID NO 6 and NO 10, respectively) were codon optimised for expression in E. coli and the synthetic genes were cloned into the vector pET28 to yield a recombinant C-terminal 6×-His tagged enzymes (GenScript, Piscataway, N.J., USA). The constructs were transformed into E. coli Arctic express strain (Agilent Technologies, Wokingham, UK). Per construct, 3-5 freshly transformed Arctic express E. coli colonies were pre-inoculated in 10 mL 2YT medium containing 100 mg/L kanamycin and 20 mg/L gentamycin and incubated at 37° C. overnight. A 5-mL aliquot was used to inoculate 500 mL of the above medium not containing antibiotics and cells were allowed to grow at 30° C. until OD600=0.5-0.7. A 1-mL aliquot of the uninduced cells was removed and spun down at 14,000×g and the cell pellet was lysed in SDS-PAGE sample buffer. 1 mM IPTG was added to the culture and then incubated at 20° C. for 24 h. Cells were then harvested following a 5 min spin at 5,000×g and resuspended in 20 mL ice-cold extraction buffer (0.1 M Tris pH 8, 0.3 M NaCl, 0.1% (v/v) Tween 20 and Halt EDTA-free protease inhibitor cocktail (Pierce/Thermoscientific, Cramlington, UK)). Bacterial suspensions were lysed in a French Press at 4° C. using a 25 kpsi disruption cycle (Model TS0.75 KU, Constant Cell Disruption Systems, Daventry, UK). Cell lysates were then spun down at 12,000×g for 20 min at 4° C. and thus fractionated into supernatant (soluble fraction) and pellet.
(§2) A 20 mL soluble fraction was filtered through a 0.45 μm syringe filter and the His-tagged proteins were purified using a His Trap Fast Flow crude 5 mL column (GE Healthcare, Little Chalfont, UK) installed in an AKTA Purifier UPC 10 System (GE Healthcare, Sweden) at 4° C. under the following steps: column equilibration in 50 mL 0.1 M Tris pH 8, 0.3 M NaCl, 0.1% (v/v) Tween 20 at 2 mL/min; sample loading at 0.4 mL/min; column wash in 50 mL 0.1 M Tris pH 8, 0.3 M NaCl, 0.1% (v/v) Tween 20, 5 mM imidazole at 2 mL/min; elution in 100 mL 0.1 M Tris pH 8, 0.3 M NaCl, 0.1% (v/v) Tween 20, and a 10-500 mM imidazole gradient at 2 mL/min. Two mL fractions were individually collected. Protein absorbance at 280 nm was monitored throughout the purification procedure. Elution fractions showing absorbance peaks were collected and analysed through SDS-PAGE. Purified proteins (Seq ID NO 3 and 11, respectively) were quantified using Coomassie Plus Protein Assay (Pierce/Thermoscientific, Cramlington, UK) and desalted to remove any inhibitors/interferents using 10 mL Zeba Spin Desalting Columns MWCO 7K, (Pierce/Thermoscientific, Cramlington, UK) pre-equilibrated in 20 mM Potassium Phosphate buffer pH 7.
(§3) General reaction set up was carried out as previously described (Lenz & Zenk, 1995, FEBS 233:132-139). Substrates (S)-reticuline, 1,2-dehydroreticuline and coclaurine were purchased from TRC Chemicals (Toronto, Canada) and codeinone was supplied by MacFarlan-Smith (Edinburgh, UK). Assay reactions contained […], 5 μg oxidoreductase A or B preparation, 100 mM buffer covering a range of pH values (potassium phosphate pH 6-8, glycine-NaOH pH 9) and 75 μM substrate. Reactions were incubated for 2 h at 37° C. and immediately frozen at −80° C. Reactions were dried down to powder in speedvac Gene Vac EZ-2 plus (Ipswich, UK) at 40° C. and resuspended in 100 μL 1:1 Hexane:Ethanol (v/v), 0.1% Diethylamine (v/v). […]

[3] = Recombinant oxidoreductase enzyme assay (E. coli-expressed, purified), substrate codeinone; settings: for nmol product formation at pH 6.0 / nmol product formation at pH 7.0 / nmol product formation at pH 8.0 / nmol product formation at pH 9.0: substrate codeinone
Experimental: as §1, §2
General reaction set up was carried out as previously described (Lenz & Zenk, 1995, FEBS 233:132-139). Substrates (S)-reticuline, 1,2-dehydroreticuline and coclaurine were purchased from TRC Chemicals (Toronto, Canada) and codeinone was supplied by MacFarlan-Smith (Edinburgh, UK). Assay reactions contained […], 5 μg oxidoreductase A or B preparation, 100 mM buffer covering a range of pH values (potassium phosphate pH 6-8, glycine-NaOH pH 9) and 75 μM substrate. Reactions were incubated for 2 h at 37° C. and immediately frozen at −80° C. Reactions were dried down to powder in speedvac Gene Vac EZ-2 plus (Ipswich, UK) at 40° C. and resuspended in 100 μL 1:1 Hexane:Ethanol (v/v), 0.1% Diethylamine (v/v).
Chiral separations were performed following the method previously described (Iwasa et al., 2009, Phytochem 70:198-206) and carried out on a TSP HPLC system equipped with a UV6000 LP detector, a P4000 pump and an AS 3000 autosampler (Thermo Separation Products/Thermoscientific, Waltham, Mass., USA) connected to a mass spectrometer LCQ Classic mass spectrometer (Finnigan Mat, San Jose, Calif., USA). A Lux 5μ Cellulose 3 250×4.6 mm column (Phenomenex, Macclesfield, UK) was used for separations. […]

[4] = Recombinant oxidoreductase enzyme assay (E. coli-expressed, purified), substrate 1,2-dehydroreticuline
Experimental: as §1, §2, §3

[5] = Recombinant oxidoreductase enzyme assay (E. coli-expressed, purified), substrate coclaurine
Experimental: as §1, §2, §3

[6] = NADPH dependent reduction, pH 6 to 9
[7] = product neopine, triplicate mean ± SD

B1: oxidoreductase module: C-terminal oxidoreductase module of STORR (codon optimized SEQ ID NO 33) expressed in S. cerevisiae (protein)
chain: MESSGVPVITLGSGKVMPVLGMGTFEKVGKGSERERLAILKAIEVGYRYFDTAAAYETEEVLGEAIAEALQLGLVKSRDELFISSMLWCTDAHADRVLLALQNSLRNLKLEYVDLYMLPFPASLKPGKITMDIPEEDICRMDYRSVWAAMEECQNLGFTKSIGVSNFSCKKLQELMATANIPPAVNQVEMSPAFQQKKLREYCNANNILVSAISVLGSNGTPWGSNAVLGSEVLKKIAMAKGKSVAQVSMRWVYEQGASLVVKSFSEERLRENLNIFDWELTKEDHEKIGEIPQCRILSAYFLVSPNGPFKSQEELWDDEA
modifications: Yeast codon optimised Oxidoreductase
- conversion efficiency of 1,2-dehydroreticuline to (R)-reticuline [1]: 100%

B2: Oxidoreductase B: Recombinant His-tagged close homologue (96% amino acid identity) of oxidoreductase A (SEQ ID NO 11), expressed in E. coli (protein, listed as Papaver somniferum)
chain: MESSGVPVITLSSGKLMPVLGMGTFEKVGKGSERERLVILKAIEVGYRYFDTAAAYETEEVLGEAIAEALQLGLIKSRDELFISSMLWCTDAHPDRVLLALQNSLRNLKLEYLDLYMLPFPVSLKPGKITMDIQEEDICRMDYRSVWAAMEECQNLGFTKSIGVSNFSCKKLQELMATANIPPDVNQVEMSPAFQQKKLRDYCNANNILVSAVSILGSNGTPWGSNAVLGSEVLRKIAMAKGKSVAQVSMRWVYDQGASLVVKSFSEERLRENLNIFDWELTKEDHEKIGEIPQCRILSAYFLVSPNGPFKSQEELWDDEA
modifications: His tag
- transformation of the substrate (S)-reticuline (in words) ([2]; pH 6 to 9): no transformation of the substrate
- nmol product formation at pH 6.0 ([2]; substrate (S)-reticuline, expected product dehydroreticuline, pH 6.0): 0.0 nmol
- nmol product formation at pH 7.0 ([2]; substrate (S)-reticuline, expected product dehydroreticuline, pH 7.0): 0.0 nmol
- nmol product formation at pH 8.0 ([2]; substrate (S)-reticuline, expected product dehydroreticuline, pH 8.0): 0.0 nmol
- nmol product formation at pH 9.0 ([2]; substrate (S)-reticuline, expected product dehydroreticuline, pH 9.0): 0.0 nmol
- formation of codeine from codeinone (in words) [3, 6]: did not form codeine
- formation of neopine from codeinone (in words) [3, 6]: neopine production within pH values 6 to 8
- nmol product formation at pH 6.0 ([3]; product codeine): 0.0 nmol
- nmol product formation at pH 7.0 ([3]; product codeine): 0.0 nmol
- nmol product formation at pH 8.0 ([3]; product codeine): 0.0 nmol
- nmol product formation at pH 9.0 ([3]; product codeine, triplicate mean ± SD): 0.0 nmol
- nmol product formation at pH 6.0 [3, 7]: 0.040 ± 0.020 nmol
- nmol product formation at pH 7.0 [3, 7]: 0.005 ± 0.001 nmol
- nmol product formation at pH 8.0 [3, 7]: 0.016 ± 0.008 nmol
- nmol product formation at pH 9.0 ([3]; product neopine): 0.000 nmol
- conversion of 1,2-dehydroreticuline to (R)-reticuline (in words) ([4]; pH 6 to 9): efficiently converted
- nmol product formation at pH 6.0 ([4]; substrate dehydroreticuline, product (R)-reticuline, pH 6.0, triplicate mean ± SD): 0.148 ± 0.036 nmol
- nmol product formation at pH 7.0 ([4]; substrate dehydroreticuline, product (R)-reticuline, pH 7.0, triplicate mean ± SD): 0.130 ± 0.021 nmol
- nmol product formation at pH 8.0 ([4]; substrate dehydroreticuline, product (R)-reticuline, pH 8.0, triplicate mean ± SD): 0.164 ± 0.020 nmol
- nmol product formation at pH 9.0 ([4]; substrate dehydroreticuline, product (R)-reticuline, pH 9.0, triplicate mean ± SD): 0.202 ± 0.026 nmol
- transformation of the substrate coclaurine (in words) ([5]; pH 6 to 9): no transformation of the substrate
- nmol product formation at pH 6.0 ([5]; substrate coclaurine, no product observed, pH 6.0, 75 μM substrate, NADPH, 2 h 37° C., triplicate mean ± SD): 0.0 nmol
- nmol product formation at pH 7.0 ([5]; substrate coclaurine, no product observed, pH 7.0): 0.0 nmol
- nmol product formation at pH 8.0 ([5]; substrate coclaurine, no product observed, pH 8.0): 0.0 nmol
- nmol product formation at pH 9.0 ([5]; substrate coclaurine, no product observed, pH 9.0): 0.0 nmol
